Assay results from PMC6751169.
Values belong to the substance of their own block, whether it stands above or below them.

Key:
[1] = target: MenDRA (MenD-RIAD with one RIAD peptide tag) (E. coli); experiment: transmission electron microscopy; TEM of the SEC-purified Assemblies A, B and C; two-dimensional single-particle analysis on Assembly B
[2] = target: MenDRD (MenD-RIDD with one RIDD peptide tag) (E. coli | not stated); experiment: as above
[3] = target: CrtERD-YFP (geranylgeranyl diphosphate synthase, CrtE-RIDD, fused with yellow fluorescent protein) (UniProt P10644); experiment: FRET or BRET; lifetime-based FRET (two-photon FLIM) in living E. coli cells; CFP donor excited at 810 nm, signal collected at 481 nm; strain Car2f against control strain Car1f
[4] = target: MenDRA2 (MenD-RIAD-RIAD with two sequential RIAD peptide tags) (E. coli); experiment: transmission electron microscopy; TEM of the SEC-purified Assemblies A, B and C; two-dimensional single-particle analysis on Assembly B
[5] = target: MenDRD (MenD-RIDD with one RIDD peptide tag) (E. coli | not stated); experiment: SEC; 1.5 mg of enzyme fused with RIAD mixed with two-fold molar excess of enzyme fused with RIDD in Tris buffer pH 7.8, 1 mM EDTA, 0.02% Tween-20, no incubation; Superdex 200 10/300 GL, 0.4 mL/min, Tris pH 7.8, 50 mM NaCl; masses from a calibration curve

Substance: MenDRD (MenD-RIDD with one RIDD peptide tag) (from UniProt P10644 1-44) (enzyme)
- stoichiometry N [2]: 4

Substance: IdiRA-CFP (isopentenyl diphosphate isomerase, Idi-RIAD, fused with cyan fluorescent protein) (enzyme)
- FRET efficiency E [3]: 29%

Substance: MenDRA2 (MenD-RIAD-RIAD with two sequential RIAD peptide tags) (enzyme)
- stoichiometry N [4]: 4

Continued, values first:

- stoichiometry N [1]: 4
Substance: MenDRA (MenD-RIAD with one RIAD peptide tag) (enzyme)

- stoichiometry N (MenH per 4 MenD (per particle)) [5]: 2
Substance: MenHRA (MenH-RIAD with one RIAD peptide tag) (enzyme)
